From patent US20220280618A1 (ADMINISTRATORS OF THE TULANE EDUCATIONAL FUND, published 2022) come the findings set out here.

What is called koff is the first-order rate constant of dissociation. Usually kon stands for the second-order rate constant of association. For orientation: Kd means a measure of binding affinity in units of concentration. Read a low Kd as higher affinity.

The labels stand for the following.
B1: HuMAb 1.10C (anti-MET6) (antibody, V domains shown)
VH: EVQLVESGGGLVKPGGSLRLSCKASGFNFTNSWMSWVRQAPGKGLEWLGRIKSESDGGATRYAAPVTGRFSISRDDSRDMLFLQMNSLTTDDTAMYYCTTNKVTTNYWGQGTLVTVSS
VL: DIVMTQSPVTLAVSLGERATINCKSSQSLLYSSDNENYLTWYQQKPGQPPKLLIYWASVRESGIPDRFIGSGSVTDFTLTINNVQAEDVAVYYCQQFRYTPLTFGQGTTLEIK
notes: also called 1.100
B2: Fba peptide (synthetic, from fructose-bisphosphate aldolase) (peptide)
peptide: YGKDVKDLFDYAQE
B4: HuMAb 1.11D (anti-Fba) (antibody, V domains shown)
VH: EVQLVQSGGGLVQPGGSLRLSCSASGFTFRTYAMSWVRQAPGKGLQWVSVISRSGDTTYHTDSVKGRFTISRDNSRNALYLQLDSLRAEDTALYYCAKTGNMAVGDRRTNYSYYYMDVWGKGTTVTVSS
VL: DIVMTQSPSTLSASVGDRVTITCRASQSIKYWLAWYQQKPGKAPKLLIYKASNLESGVPSRFSGSGSGTEFTLTISSLRPDDFATYYCQQYNSYPLTFGGGTVEIK
B5: MET6 peptide (synthetic, from methyltetrahydropteroyltriglutamate homocysteine methyltransferase) (peptide)
peptide: PRIGGQRELKKITE
notes: also called MEM

Assay [1] deals with T1, MET6-Biotin peptide (Candida albicans, not fully specified; C-terminal K-Biotin (PRIGGQRELKKITEPGGSGGSGK-Biotin)).
T1 construct: also called btn-Met6 peptide; MFT6-Biotin
T1 peptide: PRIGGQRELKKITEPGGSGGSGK
The assay is described as follows: BLI (BLITz), btn-Met6 peptide on streptavidin tip, IgG in solution.
Experimental: (§1) Binding experiments were performed using a FortèBio BLITz Bi-layer interferometer at 25° C. […] Loaded sensors were dipped into serial dilutions of the cognate IgG.

Assay [2] concerns the target B2. Put plainly: ELISA on peptide-coated wells, HRP goat anti-human IgG, absorbance at 450 nm. Background: In an ELISA, binding on a coated surface is turned into a signal by an enzyme label.
The target in assay [3] is B5. The assay is described as above.
In assay [4] the target is T1, MET6-Biotin peptide. The assay is described as follows: BLI (BLITz), btn-Met6 peptide on streptavidin tip, IgG in solution; BLITz run of Dec. 3, 2018.
Assay [5] addresses T1, MET6-Biotin peptide. The assay is described as follows: bio-layer interferometry (Octet), steady state analysis, met6-btn on streptavidin sensors.
Assay [6] has as its target T1, MET6-Biotin peptide. Put plainly: bio-layer interferometry (Octet), met6-btn loaded on streptavidin sensors, kinetic 1:1 fit.
In assay [7] the target is T1, MET6-Biotin peptide. The assay is described as follows: BLI (Octet HTX), kinetic 1:1 fit, biotinylated peptide on streptavidin sensor, IgG in solution; kinetic measurement (FIG. 4). (Biolayer interferometry detects binding as a change in optical thickness at a sensor tip.)
For assay [8], the target named is T1, MET6-Biotin peptide. Put plainly: bio-layer interferometry (Octet), met6-btn loaded on streptavidin sensors, kinetic 1:1 fit; column head kdis(1/s).
In assay [9] the target is T1, MET6-Biotin peptide. The assay is described as follows: BLI (Octet HTX), steady-state analysis, biotinylated peptide on streptavidin sensor, IgG in solution; steady-state measurement (FIG. 5).
Assay [10] addresses T2, full-length His-tagged recombinant Fba protein from C. albicans (Candida albicans, UniProt Q9URB4 2-359).
T2 construct: mature; also called His-Fba; whole length recombinant Fba (C. albicans); not shown: six-histidine (6-His) amino terminal tag from vector pRSET A
T2 sequence (looked up): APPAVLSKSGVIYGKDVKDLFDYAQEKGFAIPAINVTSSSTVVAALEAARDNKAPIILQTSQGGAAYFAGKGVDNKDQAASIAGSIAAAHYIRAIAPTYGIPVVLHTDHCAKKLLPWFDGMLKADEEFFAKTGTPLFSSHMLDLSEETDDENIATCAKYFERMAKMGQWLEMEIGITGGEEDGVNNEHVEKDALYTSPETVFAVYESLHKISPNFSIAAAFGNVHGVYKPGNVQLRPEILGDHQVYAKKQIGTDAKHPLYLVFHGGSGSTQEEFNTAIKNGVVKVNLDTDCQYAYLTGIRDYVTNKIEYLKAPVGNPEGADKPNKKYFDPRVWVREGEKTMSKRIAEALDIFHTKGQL
The assay is described as follows: bio-layer interferometry (BLITz), His-Fba (C. albicans) loaded on an anti-penta-His sensor, antibody in the association step.

The target of assay [11] is T3, full-length His-tagged recombinant Met6 protein from C. albicans (Candida albicans, UniProt P82610 2-767).
T3 construct: mature; also called His-Met6; whole length recombinant MET6; not shown: six-histidine (6-His) amino terminal tag from vector pRSET A
T3 sequence (looked up): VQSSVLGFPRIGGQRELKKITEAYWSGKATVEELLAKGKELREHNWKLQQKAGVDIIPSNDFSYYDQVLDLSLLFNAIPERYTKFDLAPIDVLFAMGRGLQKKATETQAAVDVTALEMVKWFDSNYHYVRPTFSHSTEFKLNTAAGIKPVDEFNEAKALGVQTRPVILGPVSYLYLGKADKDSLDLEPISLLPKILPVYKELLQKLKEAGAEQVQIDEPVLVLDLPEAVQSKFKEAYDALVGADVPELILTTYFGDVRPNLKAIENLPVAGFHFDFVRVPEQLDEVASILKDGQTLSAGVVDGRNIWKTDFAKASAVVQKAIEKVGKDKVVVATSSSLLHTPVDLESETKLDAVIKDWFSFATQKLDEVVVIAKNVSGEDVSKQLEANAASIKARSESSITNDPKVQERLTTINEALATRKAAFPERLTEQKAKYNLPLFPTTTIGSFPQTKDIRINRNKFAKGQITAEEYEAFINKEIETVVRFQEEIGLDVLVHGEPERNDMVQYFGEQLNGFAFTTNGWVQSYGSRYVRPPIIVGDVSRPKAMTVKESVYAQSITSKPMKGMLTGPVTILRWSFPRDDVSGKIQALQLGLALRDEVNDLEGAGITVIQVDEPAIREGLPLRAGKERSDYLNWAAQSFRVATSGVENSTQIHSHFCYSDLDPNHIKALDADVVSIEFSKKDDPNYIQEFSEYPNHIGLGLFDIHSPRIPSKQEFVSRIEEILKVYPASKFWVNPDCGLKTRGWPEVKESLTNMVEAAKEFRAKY
The assay is described as follows: bio-layer interferometry (BLITz), His-Met6 (C. albicans) from bacterial supernatant loaded on an anti-penta-His sensor, antibody in the association step.

Assay [12] deals with B4. Put plainly: competition ELISA: 1.11D mixed with free Fba peptide and added to Fba peptide-coated wells; the competitor is the coated Fba peptide.
Assay [13] has as its target T4, Fba-Biotin peptide (Candida albicans, not fully specified; C-terminal K-Biotin (YGKDVKDLFDYAQEGGSGGSGK-Biotin)).
T4 construct: also called btn-Fba peptide
T4 peptide: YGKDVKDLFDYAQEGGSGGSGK
Put plainly: BLI (BLITz), btn-Fba peptide on streptavidin tip, IgG in solution.
Experimental: as §1

Assay [14] deals with T4, Fba-Biotin peptide. The assay is described as follows: bio-layer interferometry (Octet), steady state analysis, Fba-btn on streptavidin sensors.
For assay [15], the target named is T4, Fba-Biotin peptide. The assay is described as follows: bio-layer interferometry (Octet), Fba-btn at 10 ng/ml loaded on streptavidin sensors, kinetic 1:1 fit.
Assay [16] has as its target T4, Fba-Biotin peptide. Put plainly: BLI (Octet HTX), kinetic 1:1 fit, biotinylated peptide on streptavidin sensor, IgG in solution; kinetic measurement (FIG. 4).
Assay [17] deals with T4, Fba-Biotin peptide. Put plainly: BLI (Octet HTX), steady-state analysis, biotinylated peptide on streptavidin sensor, IgG in solution; steady-state measurement (FIG. 5).
The target in assay [18] is T4, Fba-Biotin peptide. Put plainly: bio-layer interferometry (Octet), Fba-btn at 10 ng/ml loaded on streptavidin sensors, kinetic 1:1 fit; column head kdis(1/s).
Assay [19] has as its target B1. Put plainly: competition ELISA: 1.10C mixed with free MET6 peptide and added to MET6 peptide-coated wells; the competitor is the coated MET6 peptide.

With B1, the koff in assay [1] stood at 0.0055 s⁻¹; in [8], 0.0124 s⁻¹. The kon was 31000 M⁻¹ s⁻¹ in assay [1] and 69500 M⁻¹ s⁻¹ in [6]. Also, the binding result in assay [2] is “no binding”; in [3] it was “binds”; in assay [10], “no binding”; in assay [11], “binds”. The dissociation constant (Kd) in assay [4] is 180 nM; in [5] it was 310 nM; in assay [6] it was 179 nM; in [7], ~180 nM; in [9], ~310 nM.

With B2, the “IC50 (read off the curve)” value in [12] was ~4 µg/mL.

B3: HuMAb 6.11C (anti-Fba) (antibody, V domains shown)
VH: QVQLVQSGAEVKKPGASVQVSCRTSGYTFINYFMHWVRQAPGQGLEWMGIINPNGGKTRYAQKFQGRLTVTRDTSTNTVYVELSNLRYEDTGLYFCARDPEGEVGFDYWGQGTQVTVSS
VL: SHELTQPPSVSVSPGQTARITCSGDALSKQYAYWYQQKPGQAPVVVIYKDNERPSGIPERFSGSSSGTTVTLTITGVQAEDEADYYCQSTDTSRAYYVFGTGTKVTVL
Consider B3, for which, in assay [13], binding was put at a Kd of 120 nM, the koff worked out at 0.06 s⁻¹ and the kon came out at 490000 M⁻¹ s⁻¹.

With B4, the Kd is 19.8 nM in assay [13]; 77 nM in [14]; 58.5 nM in assay [15]; ~58 nM in assay [16]; ~77 nM in assay [17]. Also, the figures for the koff in assay [13] and in assay [18] were 0.00073 s⁻¹ and 0.00646 s⁻¹, respectively. Also, the association rate constant (kon) in assay [13] stood at 38000 M⁻¹ s⁻¹; in assay [15] it was 111000 M⁻¹ s⁻¹.

For the molecule B5, the “IC50 (read off the curve)” value in assay [19] is ~2 µg/mL.

B6: HuMAb 6.6K (anti-Met6) (antibody, V domains shown)
VH: QVQLVESGGGVVQPGRSLRLSCAASGFNFISYGMHWVRQAPGKGLEWVALISYDGSNKYYADSVKGRFTISRDNSKNTLYLQMNSLRAEDTAVYYCATEAYVETAMVPQYWGQGTLVTVSS
VL: SYELTQPPSVSVSPGQTARITCSGDALPKEYAYWYQQKSGQAPVVVIYEDSKRPSGIPERFSGSSSGTMATLTISGAQVEDEADYHCYSTDSSGNPVFGGGTKLTVL
In [1], B6 showed a Kd of 160 nM, a koff of 0.012 s⁻¹ and a kon of 75000 M⁻¹ s⁻¹.

B7: HuMAb 1.B10 (anti-Met6) (antibody, V domains shown)
VH: EVQLVQSGGGLVKPGGSLRLSCAASGFIFSNAWMNWVRQAPGKGLEWVGRIKRESDSGTTDYGAAVKGRFTISRDDSKYTLYLQMNSLKTDDTAVYYCTTGWADYWGQGTLVTVSS
VL: LIQPPSVSVSPGQTARITCSGDALPNKYAYWYQQKPGQAPSVVMFRDNERPSGIPERFSGSSSGTTVTLTISGVQAEDESDFYCQSTDSNGAWVFGGGTKLTVL
In [1], B7 yielded a Kd of 31 nM, a koff of 0.0064 s⁻¹ and a kon of 210000 M⁻¹ s⁻¹.
